B1: SiaT19: sialyltransferase of Photobacterium leiognathi JT-SHIZ-145, acc. BAF91416, SEQ ID NO: 30 (protein, listed as Photobacterium leiognathi)
chain: MNDNQNTVDVVVSTVNDNVIENNTYQVKPIDTPTTFDSYSWIQTCGTPILKDDEKYSLSFDFVAPELDQDEKFCFEFTGDVDGKRYVTQTNLTVVAPTLEVYVDHASLPSLQQLMKIIQQKNEYSQNERFISWGRIRLTEDNAEKLNAHIYPLAGNNTSQELVDAVIDYADSKNRLNLELNTNTGHSFRNIAPILRATSSKNNILISNINLYDDGSAEYVSLYNWKDTDNKSQKLSDSFLVLKDYLNGISSEKPNGIYSIYNWHQLYHSSYYFLRKDYLTVETKLHDLREYLGGSLKQMSWDTFSQLSKGDKELFLNIVGFDQEKLQQEYQQSELPNFVFTGTTTWAGGETKEYYAQQQVNVVNNAINETSPYYLGREHDLFFKGHPRGGIINDIILGSFNNMIDIPAKVSFEVLMMTGMLPDTVGGIASSLYFSIPAEKVSFIVFTSSDTITDREDALKSPLVQVMMTLGIVKEKDVLFWC
B2: SiaT9: sialyltransferase of Vibrio sp. JT-FAJ-16, acc. BAF91160, SEQ ID NO: 2 (protein, listed as Vibrio sp.)
chain: MNNDNSTTTNNNAIEIYVDRATLPTIQQMTKIVSQKTSNKKLISWSRYPITDKSLLKKINAEFFKEQFELTESLKNIILSENIDNLIIHGNTLWSIDVVDIIKEVNLLGKNIPIELHFYDDGSAEYVRIYEFSKLPESEQKYKTSLSKNNIKFSIDGTDSFKNTIENIYGFSQLYPTTYHMLRADIFDTTLKINPLRELLSNNIKQMKWDYFKDFNYKQKDIFYSLTNFNPKEIQEDFNKNSNKNFIFIGSNSATATAEEQINIISEAKKENSSIITNSISDYDLFFKGHPSATFNEQIINAHDMIEINNKIPFEALIMTGILPDAVGGMGSSVFFSIPKEVKNKFVFYKSGTDIENNSLIQVMLKLNLINRDNIKLISDI

Test: In vitro sialylation of LNT by protein extracts, LST-a/-b quantified by LC-MS/MS
Format: biochemical
Details: for Ranking in the screening for sialylation of LNT: in words
Procedure, shortened: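 E. coli BL21(DE3) crude extracts overexpressing sialyltransferases (IPTG 0.3 mM, 12–16 h at 30 °C) incubated 16 h with 5 mM LNT and 10 mM CMP-Neu5Ac in 50 mM Tris-HCl pH 7.5, 5 mM MgCl2. LST-a and LST-b measured by HILIC LC-MS/MS, MRM in ESI negative mode, against commercial standards.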

[1] = 5 mM LNT, 10 mM CMP-Neu5Ac, 16 hours, LC-MS/MS, relative quantity, n.d.: not detectable

| Molecule | Relative efficacy of sialyltransferases regarding in-vitro production of sialyllacto-N-tetraoses: LST-b [1] | Ranking in the screening for sialylation of LNT | Relative efficacy of sialyltransferases regarding in-vitro production of sialyllacto-N-tetraoses: LST-a [1] |
| --- | --- | --- | --- |
| B1 | 157 | sialylate LNT most efficiently among the tested α-2,6-sialyltransferases | – |
| B2 | – | best performing α-2,3-sialyltransferases for LST-a production | 8.39 × 10^3 |

Source: US12692524B2, “Sialyltransferases and their use in producing sialylated oligosaccharides” (Chr. Hansen A/S, priority 2017, dated 2026)
